Reference: patent publication US20240270821A1, “GIP/GLP1/GCG TRI-RECEPTOR AGONISTS AND USES THEREOF” (priority 2023, published 2024)
Positions count from the first letter of the chain named.

T1: human GIP receptor (human) (UniProt P48546)
T1 sequence (looked up): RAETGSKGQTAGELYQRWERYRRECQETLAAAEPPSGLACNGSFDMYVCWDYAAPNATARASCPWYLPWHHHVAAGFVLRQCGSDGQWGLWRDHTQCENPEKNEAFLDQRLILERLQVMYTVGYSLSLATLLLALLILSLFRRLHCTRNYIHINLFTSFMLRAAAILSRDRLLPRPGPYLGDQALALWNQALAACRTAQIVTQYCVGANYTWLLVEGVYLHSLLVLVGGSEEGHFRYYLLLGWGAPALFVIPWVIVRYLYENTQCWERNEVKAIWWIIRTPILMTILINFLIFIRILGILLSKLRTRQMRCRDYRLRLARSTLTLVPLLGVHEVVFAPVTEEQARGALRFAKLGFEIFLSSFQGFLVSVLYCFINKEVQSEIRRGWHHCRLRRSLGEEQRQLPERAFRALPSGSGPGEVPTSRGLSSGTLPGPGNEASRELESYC

B1: Example 1064 (peptide)
chain: YXQGTFTSDXSXXLDXKAQXAFIEXLLEGGPSSGAPPPSGSEE
modifications: Aib, 4Pal, Orn, αMeL, αMeY; lysine acylated C18 diacid; amide; synthetic construct; SITE 2: note = 2-Aminoisobutyric Acid; SITE 10: note = 3-(4-Pyridyl)-L-alanine; SITE 12: note = L-ornithine; SITE 13: note = alpha-methyl-leucine; SITE 16: note = L-ornithine; SITE 17: note = Lysine is chemically modified through conjugation of the epsilon-amino group of the Lys
B2: Example 1053 (peptide)
chain: B1 chain with X10F, E28A, S39E
modifications: non-natural residues, (γGlu)2-C18 diacid lysine acylation, C-terminal amide; synthetic construct; SITE 2: note = 2-Aminoisobutyric Acid; SITE 12: note = L-ornithine; SITE 13: note = alpha-methyl-leucine; SITE 16: note = L-ornithine; SITE 17: note = Lysine is chemically modified through conjugation of the epsilon-amino group of the Lysine side chain with (gamma-Glu)2-CO-(CH2)
B3: Example 1051 (peptide)
chain: B1 chain with X10F, X16K, X25Y, E28A, S39E
modifications: Aib, Orn, αMeL; acylated Lys; C-terminal amide; synthetic construct; SITE 2: note = 2-Aminoisobutyric Acid; SITE 12: note = L-ornithine; SITE 13: note = alpha-methyl-leucine; SITE 17: note = Lysine is chemically modified through conjugation of the epsilon-amino group of the Lysine side chain with (gamma-Glu)2-CO-(CH2)16-CO2H; SITE 20: note = 2-Am
B4: Example 1044 (peptide)
chain: B1 chain with X12Q, L27I
modifications: non-natural residues, (γGlu)2-C18 diacid lysine acylation, C-terminal amide; synthetic construct; SITE 2: note = 2-Aminoisobutyric Acid; SITE 10: note = 3-(4-Pyridyl)-L-alanine; SITE 13: note = alpha-methyl-leucine; SITE 16: note = L-ornithine; SITE 17: note = Lysine is chemically modified through conjugation of the epsilon-amino group of the Lysine side chain with (gamma-Gl)
B5: Example 1046 (peptide)
chain: B1 chain with X12Q, A21Q, L27I
modifications: non-natural residues, C-terminal amide, acylated Lys with fatty diacid; synthetic construct; SITE 2: note = 2-Aminoisobutyric Acid; SITE 10: note = 3-(4-Pyridyl)-L-alanine; SITE 13: note = alpha-methyl-leucine; SITE 16: note = L-ornithine; SITE 17: note = Lysine is chemically modified through conjugation of the epsilon-amino group of the Lysine side chain with (gamma-Gl)
B6: Example 1059 (peptide)
chain: B1 chain with X25Y, L27I, E28A
modifications: acylated Lys, C-terminal amide, non-natural residues; synthetic construct; SITE 2: note = 2-Aminoisobutyric Acid; SITE 10: note = 3-(4-Pyridyl)-L-alanine; SITE 12: note = L-ornithine; SITE 13: note = alpha-methyl-leucine; SITE 16: note = L-ornithine; SITE 17: note = Lysine is chemically modified through conjugation of the epsilon-amino group of the Lys
B7: Example 1067 (peptide)
chain: B1 chain
modifications: non-natural residues; lysine acylated with C18 diacid; C-terminal amide; synthetic construct; SITE 2: note = 2-Aminoisobutyric Acid; SITE 10: note = 3-(4-Pyridyl)-L-alanine; SITE 12: note = L-ornithine; SITE 13: note = alpha-methyl-leucine; SITE 16: note = L-ornithine; SITE 17: note = Lysine is chemically modified through conjugation of the epsilon-amino group of the Lys
B8: Example 1043 (peptide)
chain: B1 chain with X12Q, L27I
modifications: non-natural residues, C18 diacid-(γGlu)2 acyl on K, C-terminal amide; synthetic construct; SITE 2: note = 2-Aminoisobutyric Acid; SITE 10: note = 3-(4-Pyridyl)-L-alanine; SITE 13: note = alpha-methyl-leucine; SITE 16: note = L-ornithine; SITE 17: note = Lysine is chemically modified through conjugation of the epsilon-amino group of the Lysine side chain with (gamma-Gl)
B9: Example 1063 (peptide)
chain: B1 chain with X25Y, L27I, E28A
modifications: Lys acylated γGlu-C18 diacid; non-natural residues; C-amide; synthetic construct; SITE 2: note = 2-Aminoisobutyric Acid; SITE 10: note = 3-(4-Pyridyl)-L-alanine; SITE 12: note = L-ornithine; SITE 13: note = alpha-methyl-leucine; SITE 16: note = L-ornithine; SITE 17: note = Lysine is chemically modified through conjugation of the epsilon-amino group of the Lys
B10: Example 1045 (peptide)
chain: B1 chain with X12Q, A21Q, L27I
modifications: non-natural residues; lipidated Lys AEEA-γGlu-C18 diacid; C-term amide; synthetic construct; SITE 2: note = 2-Aminoisobutyric Acid; SITE 10: note = 3-(4-Pyridyl)-L-alanine; SITE 13: note = alpha-methyl-leucine; SITE 16: note = L-ornithine; SITE 17: note = Lysine is chemically modified through conjugation of the epsilon-amino group of the Lysine side chain with (2-[2-(2-
B11: Example 1041 (peptide)
chain: B1 chain with X12Q, L27I
modifications: Aib, 4Pal, Orn, Me4Pal, αMeY; acylated lysine; amide; synthetic construct; SITE 2: note = 2-Aminoisobutyric Acid; SITE 10: note = 3-(4-Pyridyl)-L-alanine; SITE 13: note = alpha-methyl-leucine; SITE 16: note = L-ornithine; SITE 17: note = Lysine is chemically modified through conjugation of the epsilon-amino group of the Lysine side chain with (2-[2-(2-
B12: Example 1056 (peptide)
chain: B1 chain with X12Q, X25Y, E28A
modifications: non-natural residues; lipidated Lys; C-terminal amide; synthetic construct; SITE 2: note = 2-Aminoisobutyric Acid; SITE 10: note = 3-(4-Pyridyl)-L-alanine; SITE 13: note = alpha-methyl-leucine; SITE 16: note = L-ornithine; SITE 17: note = Lysine is chemically modified through conjugation of the epsilon-amino group of the Lysine side chain with (gamma-Gl)
B13: Example 1060 (peptide)
chain: B1 chain with X16K, X25Y, L27I, E28A
modifications: Aib, 4Pal, Orn, αMeL, Me4Pal; acylated Lys; C-terminal amide; synthetic construct; SITE 2: note = 2-Aminoisobutyric Acid; SITE 10: note = 3-(4-Pyridyl)-L-alanine; SITE 12: note = L-ornithine; SITE 13: note = alpha-methyl-leucine; SITE 17: note = Lysine is chemically modified through conjugation of the epsilon-amino group of the Lysine side chain with (Glu)-(ga)
B14: Example 1042 (peptide)
chain: B1 chain with X12Q, L27I
modifications: not fully specified; non-natural residues; lipidated Lys; C-terminal amide; synthetic construct; SITE 2: note = 2-Aminoisobutyric Acid; SITE 10: note = 3-(4-Pyridyl)-L-alanine; SITE 13: note = alpha-methyl-leucine; SITE 16: note = L-ornithine; SITE 17: note = Lysine is chemically modified through conjugation of the epsilon-amino group of the Lysine side chain with (2-[2-(2-
B15: Example 1066 (peptide)
chain: B1 chain
modifications: non-natural residues, Glu-γGlu-C18 diacid acylation, C-terminal amide; synthetic construct; SITE 2: note = 2-Aminoisobutyric Acid; SITE 10: note = 3-(4-Pyridyl)-L-alanine; SITE 12: note = L-ornithine; SITE 13: note = alpha-methyl-leucine; SITE 16: note = L-ornithine; SITE 17: note = Lysine is chemically modified through conjugation of the epsilon-amino group of the Lys
B16: Example 1058 (peptide)
chain: B1 chain with X12Q
modifications: non-natural residues; lysine acylated γGlu-C18 diacid; C-terminal amide; synthetic construct; SITE 2: note = 2-Aminoisobutyric Acid; SITE 10: note = 3-(4-Pyridyl)-L-alanine; SITE 13: note = alpha-methyl-leucine; SITE 16: note = L-ornithine; SITE 17: note = Lysine is chemically modified through conjugation of the epsilon-amino group of the Lysine side chain with D-Glutami

Key:
Experiment in all cases: cell-based or functional assay
[1] = target: T1, human GIP receptor (human)
[2] = target: human glucagon receptor (human) (UniProt P47871)
Sequence of human glucagon receptor (human) (P47871 26-477): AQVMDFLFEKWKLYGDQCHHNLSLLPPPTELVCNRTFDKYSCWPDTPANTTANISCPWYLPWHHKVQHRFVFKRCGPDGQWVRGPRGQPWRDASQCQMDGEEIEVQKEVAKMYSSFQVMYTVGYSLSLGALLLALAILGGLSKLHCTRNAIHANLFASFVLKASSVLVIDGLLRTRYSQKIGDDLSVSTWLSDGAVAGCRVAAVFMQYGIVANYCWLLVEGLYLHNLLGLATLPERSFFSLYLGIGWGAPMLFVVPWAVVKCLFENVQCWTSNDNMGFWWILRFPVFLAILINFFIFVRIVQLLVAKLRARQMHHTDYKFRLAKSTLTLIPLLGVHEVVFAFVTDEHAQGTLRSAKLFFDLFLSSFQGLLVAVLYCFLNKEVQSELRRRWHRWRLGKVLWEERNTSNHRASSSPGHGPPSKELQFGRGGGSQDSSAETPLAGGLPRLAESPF

hGLP-1R = hGLP-1R (Homo sapiens, UniProt P43220)
Sequence of hGLP-1R (P43220 24-463): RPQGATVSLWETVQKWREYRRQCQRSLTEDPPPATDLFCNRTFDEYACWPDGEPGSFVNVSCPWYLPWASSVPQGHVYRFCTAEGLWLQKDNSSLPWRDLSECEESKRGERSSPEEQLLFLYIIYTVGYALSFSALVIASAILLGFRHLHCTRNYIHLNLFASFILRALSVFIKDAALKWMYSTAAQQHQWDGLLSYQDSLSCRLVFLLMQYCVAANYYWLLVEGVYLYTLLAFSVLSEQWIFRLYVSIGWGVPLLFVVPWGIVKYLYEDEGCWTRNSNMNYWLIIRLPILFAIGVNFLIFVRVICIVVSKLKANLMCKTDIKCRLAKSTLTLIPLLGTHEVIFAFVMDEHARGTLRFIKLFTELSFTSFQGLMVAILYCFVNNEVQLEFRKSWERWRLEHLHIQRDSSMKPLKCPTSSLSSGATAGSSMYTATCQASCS

Binder	Relative cAMP EC50 [1]	cAMP Rel EC50 (1% HSA) [1]	Relative cAMP EC50 [2]	cAMP Rel EC50 (1% HSA) [2]	Relative cAMP EC50 (hGLP-1R)	cAMP Rel EC50 (1% HSA) (hGLP-1R)	cAMP Rel EC50, nM (1% HSA) [1]	cAMP Rel EC50, nM (1% HSA) [2]	cAMP Rel EC50, nM (1% HSA) (hGLP-1R)
B1	0.556 nM	62.5 nM	13.7 nM	1940 nM	7.89 nM	912 nM	–	–	–
B2	0.123 nM	19.3 nM	10.4 nM	3470 nM	6.2 nM	–	–	–	–
B3	0.172 nM	32.6 nM	10.3 nM	1800 nM	8.3 nM	–	–	–	–
B4	–	–	–	–	–	–	88.7 nM	2410 nM	1110 nM
B5	–	–	–	–	–	–	85 nM	1680 nM	528 nM
B6	0.468 nM	48.9 nM	7.52 nM	748 nM	4.61 nM	–	–	–	–
B7	0.471 nM	86.4 nM	12.6 nM	1860 nM	17.6 nM	2610 nM	–	–	–
B8	–	–	–	–	–	–	44.9 nM	2240 nM	268 nM
B9	0.318 nM	26.6 nM	10.6 nM	2290 nM	6.96 nM	626 nM	–	–	–
B10	–	–	–	–	–	–	107 nM	1540 nM	276 nM
B11	–	–	–	–	–	–	75.7 nM	1720 nM	316 nM
B12	0.0929 nM	29.6 nM	3.98 nM	1650 nM	4.25 nM	–	–	–	–
B13	0.223 nM	44.7 nM	9.08 nM	4900 nM	2.85 nM	–	–	–	–
B14	–	–	–	–	–	–	84.8 nM	1890 nM	642 nM
B15	0.446 nM	69.9 nM	25.4 nM	4260 nM	9.8 nM	1850 nM	–	–	–
B16	0.139 nM	45.6 nM	5.8 nM	1450 nM	4.48 nM	–	–	–	–
